In patent publication US20240261333A1 (published 2024):

Experiments:
Experiment in all cases: co-IP with anti-FLAG, mass spectrometry; N-FLAG B3GNT2
RPN1 = molecular target: T1, RPN1 (UniProt P04843 24-607)
T1 construct: Endogenous protein found in the co-IP by mass spectrometry; also called NP_002941.1
T1 sequence (looked up): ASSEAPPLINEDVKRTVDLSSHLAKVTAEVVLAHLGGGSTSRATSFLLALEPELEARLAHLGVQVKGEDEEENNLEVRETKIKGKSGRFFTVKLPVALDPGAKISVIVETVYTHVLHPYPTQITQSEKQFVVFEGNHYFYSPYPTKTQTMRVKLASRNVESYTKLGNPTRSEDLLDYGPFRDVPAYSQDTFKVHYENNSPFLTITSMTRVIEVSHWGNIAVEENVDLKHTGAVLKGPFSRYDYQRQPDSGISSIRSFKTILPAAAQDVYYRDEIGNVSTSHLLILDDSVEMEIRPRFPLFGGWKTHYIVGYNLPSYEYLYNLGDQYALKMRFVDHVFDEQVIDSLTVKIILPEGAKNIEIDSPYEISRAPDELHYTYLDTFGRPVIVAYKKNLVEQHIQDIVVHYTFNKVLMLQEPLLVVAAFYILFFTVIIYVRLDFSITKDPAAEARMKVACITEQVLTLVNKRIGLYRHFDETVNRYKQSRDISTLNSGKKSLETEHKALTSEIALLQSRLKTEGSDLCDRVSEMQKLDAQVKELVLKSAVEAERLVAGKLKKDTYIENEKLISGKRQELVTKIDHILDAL
Method: (§1) Cells were plated in 10-cm cell culture dishes and grown to 60-80% confluency. For each condition, two biological replicates were harvested for co-IP. Cells were washed with PBS and 4 mL of lysis buffer (20 mM HEPES, 1% Triton X-100, 150 mM NaCl, 1 mM EDTA, and 10% glycerol) containing protease inhibitor cocktail was added. Cells were scraped and lysate was incubated at 4° C. under rotary agitation for 1 h. Lysate was centrifuged at 14,000×g for 10 min at 4° C. Supernatant was transferred to a new tube and an aliquot was taken as the input. […] For Western blots, 10 μg/mL Chicken Anti-FLAG (Aves labs ET-DY100) and IgY control (R&D Systems AB-101-C) antibodies were biotinylated (Thermo Fisher Scientific 90407) and added to the respective conditions. Lysates with antibodies were incubated at 4° C. under rotary agitation overnight. For each mL of lysate, 50 μL of Pierce Protein A/G Magnetic Beads (Mass spectrometry; Thermo Fisher Scientific 88803) or Pierce Streptavidin Magnetic Beads (Western blot; Thermo Fisher Scientific 88817) was washed twice with lysis buffer. Lysates with antibodies were added to the beads and incubated at 4° C. under rotary agitation for 4 h. Beads were washed with lysis buffer 3 times and resuspended in lysis buffer for storage.
(§2) Magnetic beads were resuspended in 100 mM Tris pH 7.8, reduced, alkylated and digested with trypsin at 37° ° C. overnight. This solution was subjected to solid phase extraction to concentrate the peptides and remove unwanted reagents followed by injection onto a Shimadzu HPLC with fraction collector. Eight fractions were collected and after concentration were injected on a Waters NanoAcquity HPLC equipped with a self-packed Aeris 3 μm C18 analytical column 0.075 mm by 20 cm, (Phenomenex). Peptides were eluted using standard reverse-phase gradients. The effluent from the column was analyzed using a Thermo Orbitrap Elite mass spectrometer (nanospray configuration) operated in a data dependent manner for 54 minutes. The resulting fragmentation spectra were correlated against the known database using Proteome Discover 1.4 (Thermo Fisher Scientific).

TPI1 = molecular target: T2, TPI1 (UniProt P60174 2-249)
T2 construct: Endogenous protein found in the co-IP by mass spectrometry; also called NP_000356.1 (+2)
T2 sequence (P60174 2-249 limits assumed): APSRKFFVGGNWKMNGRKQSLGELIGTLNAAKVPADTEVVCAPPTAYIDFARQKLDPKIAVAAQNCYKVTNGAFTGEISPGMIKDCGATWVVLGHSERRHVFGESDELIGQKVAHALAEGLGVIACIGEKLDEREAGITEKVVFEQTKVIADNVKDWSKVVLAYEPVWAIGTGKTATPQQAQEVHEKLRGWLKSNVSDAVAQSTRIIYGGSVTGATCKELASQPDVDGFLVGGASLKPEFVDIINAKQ
Method: as §1, §2

ATXN2L = molecular target: T3, ATXN2L (UniProt Q8WWM7 1-1075)
T3 construct: Endogenous protein found in the co-IP by mass spectrometry; also called NP_009176.2
T3 sequence (looked up): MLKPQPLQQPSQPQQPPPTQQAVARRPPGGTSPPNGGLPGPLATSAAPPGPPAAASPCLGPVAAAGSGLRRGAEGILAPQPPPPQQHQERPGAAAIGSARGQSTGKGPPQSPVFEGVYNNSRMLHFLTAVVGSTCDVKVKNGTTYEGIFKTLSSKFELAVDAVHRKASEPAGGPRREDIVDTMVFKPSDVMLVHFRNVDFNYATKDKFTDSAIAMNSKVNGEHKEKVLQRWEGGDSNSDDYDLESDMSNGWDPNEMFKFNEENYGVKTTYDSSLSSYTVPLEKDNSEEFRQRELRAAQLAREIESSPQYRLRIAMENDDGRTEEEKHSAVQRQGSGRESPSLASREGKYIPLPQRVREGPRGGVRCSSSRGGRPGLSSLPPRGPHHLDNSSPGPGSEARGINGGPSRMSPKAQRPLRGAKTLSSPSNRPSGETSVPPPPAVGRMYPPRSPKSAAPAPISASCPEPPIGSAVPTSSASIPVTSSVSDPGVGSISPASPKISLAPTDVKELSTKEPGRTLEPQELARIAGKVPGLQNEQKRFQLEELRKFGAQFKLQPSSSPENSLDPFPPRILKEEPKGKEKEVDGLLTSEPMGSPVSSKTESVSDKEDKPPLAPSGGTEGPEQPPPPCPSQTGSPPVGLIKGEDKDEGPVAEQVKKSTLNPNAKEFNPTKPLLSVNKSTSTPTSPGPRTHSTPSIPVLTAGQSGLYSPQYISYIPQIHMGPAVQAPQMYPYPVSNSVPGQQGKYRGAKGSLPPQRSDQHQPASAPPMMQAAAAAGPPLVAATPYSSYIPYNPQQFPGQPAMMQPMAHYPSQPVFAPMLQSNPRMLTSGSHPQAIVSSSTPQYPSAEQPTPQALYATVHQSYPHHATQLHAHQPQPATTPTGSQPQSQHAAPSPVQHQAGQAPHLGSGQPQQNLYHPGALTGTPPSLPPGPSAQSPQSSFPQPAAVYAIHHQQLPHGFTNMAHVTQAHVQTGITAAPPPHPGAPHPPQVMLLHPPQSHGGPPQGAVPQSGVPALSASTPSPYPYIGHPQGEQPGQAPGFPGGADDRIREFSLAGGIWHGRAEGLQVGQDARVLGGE
Method: as §1, §2

SLIRP = SLIRP (UniProt Q9GZT3 1-109)
Method: as §1, §2

co-IP mass spectrometry count (RPN1): 0 | co-IP mass spectrometry count (TPI1): 3 | co-IP mass spectrometry count (ATXN2L): 5 | co-IP mass spectrometry count (SLIRP): 0
B1: N-terminal FLAG tagged B3GNT2 (enzyme, human, UniProt Q9NY97 1-397, looked up)
chain: MSVGRRRIKLLGILMMANVFIYFIMEVSKSSSQEKNGKGEVIIPKEKFWKISTPPEAYWNREQEKLNRQYNPILSMLTNQTGEAGRLSNISHLNYCEPDLRVTSVVTGFNNLPDRFKDFLLYLRCRNYSLLIDQPDKCAKKPFLLLAIKSLTPHFARRQAIRESWGQESNAGNQTVVRVFLLGQTPPEDNHPDLSDMLKFESEKHQDILMWNYRDTFFNLSLKEVLFLRWVSTSCPDTEFVFKGDDDVFVNTHHILNYLNSLSKTKAKDLFIGDVIHNAGPHRDKKLKYYIPEVVYSGLYPPYAGGGGFLYSGHLALRLYHITDQVHLYPIDDVYTGMCLQKLGLVPEKHKGFRTFDIEEKNKNNICSYVDLMLVHSRKPQEMIDIWSQLQSAHLKC
notes: FLAG-tagged ORF overexpressed in cells; bait of the anti-FLAG co-IP; also called N-FLAG B3GNT2; N-term FLAG; not shown: FLAG tag at the N-terminus
